Where a chain is given by its changes, count along the chain named. Numbers in names are those of the source.
B1: TPP-1015: CD137A-6GS-PDA2-6GS-HSA3-His (bispecific antibody)
chain: EVQLVESGGGLVQPGGSLRLSCAASGFTLSNYWMNWVRQAPGKGLEWVANINQDGSERYYVDSVKGRFTISRDNAKNSLYLQMNSLRAEDTAVYYCARGGEGYGVDHYGLDVSGQGTTVTVSSGGGGSGGGGSGGGGSGGGGSGGGGSGGGGSEVQLVESGGGVVRPGGSLRLSCAASGFTFDDYAMSWVRQAPGKGLEWVSGITWNAGSTGYADSVKGRFTISRDNAKNSLYLQMNSLRAEDTALYYCVRDKYSYAWSYDDFDIWGQGTMVTVSSGGGGSGGGGSGGGGSGGGGSGGGGSGGGGSEVQLLESGGGLVKPGGSLRLSCAASGFTVSSYTMNWVRQAPGKGLEWVSSISSSGRYIYYADSVKGRFTISRDNAKNSLYLQMNSLRAEDTAVYYCARDPRMVGNPHEFDIWGQGTMVTVSSAAAHHHHHH
B2: TPP-1018: CD137A-6GS-PD138G7(G109D)-6GS-HSA3-His (bispecific antibody)
chain: B1 chain with A208G, G219D
B3: TPP-1291 PD138G7(G109D)-6GS-CD137A-6GS-HSA1943 (bispecific antibody)
chain: EVQLVESGGGVVRPGGSLRLSCAASGFTFDDYAMSWVRQAPGKGLEWVSGITWNGGSTGYADSVKDRFTISRDNAKNSLYLQMNSLRAEDTALYYCVRDKYSYAWSYDDFDIWGQGTMVTVSSGGGGSGGGGSGGGGSGGGGSGGGGSGGGGSEVQLVESGGGLVQPGGSLRLSCASGFTLSNYWMNWVRQAPGKGLEWVANINQDGSERYYVDSVKGRFTISRDNAKNSLYLQMNSLRAEDTAVYYCARGGEGYGVDHYGLDVSGQGTTVTVSSGGGGSGGGGSGGGGSGGGGSGGGGSGGGGSEVQLLESGGGLVKPGGSLRLSCAASGFTVSSYTMNWVRQAPGKGLEWVSSISSSGRYIYYADSVKGRFTISRDNAKNSLYLQMNSLRAEDTAVYYCARDPRMVGNPHEFDIWGQGTMVTVSS
B4: TPP-942: PDA-6GS-172E1-13-6GS-HSA2-2-His (bispecific antibody)
chain: EVQLVESGGGLVQPGRSLRLSCAASGFTFDDYALHWVRQAPGKDLEWVSGISWNGGSYGYADSVKGRFTISRDNAKNSLYLQMNSLRAEDTALYYCVREKGPGLTGSTADYYGLDAWGQGTMVTVSSGGGGSGGGGSGGGGSGGGGSGGGGSGGGGSEVQLVESGGGVVQPGGSLRLSCAASGFTFSNYGMHWVRQAPGKGLEWVAVISNDGNTKTYADSVKGRFTISRDNSKNTLYLQMNSLRAEDTAVYYCAQDETTTVTASYYFDYWGQGTLVTVSSGGGGSGGGGSGGGGSGGGGSGGGGSGGGGSEVQLVESGGGLVKPGGSLRLSCAASGFTFSNYNMNWVRQAPGKGLEWVSSISSAGTHIYYADSVKGRFTISRDNAKNSLYLQMNSLRAEDTAVYYCARDPHSTGWYKDFDYWGQGTLVTVSSAAAHHHHHH
B5: TPP-1294 PDBlocker1.92-6GS-CD137A-7-6GS-HSA3 (bispecific antibody)
chain: EVQLVESGGGLVKPGGSLRLSCAASGFTFSDESMTWMRQAPGKGLEWVSYISSGGGVKFYADSVKGRFTISRDNAKNSLYLQMNSLRAEDTAVYYCAREAPLRLGESPHDAFDISGQGTMVTVSSGGGGSGGGGSGGGGSGGGGSGGGGSGGGGSEVQLVESGGGLVQPGGSLRLSCAASGFTLSNYWMNWVRQAPGKGLEWVANINQDGSERYYVDSVKGRFTISRDNAKNSLYLQMNSLRAEDTAVYYCARGGEGYGVDHYGLDVSGQGTTVTVSSGGGGSGGGGSGGGGSGGGGSGGGGSGGGGSEVQLLESGGGLVKPGGSLRLSCAASGFTVSSYTMNWVRQAPGKGLEWVSSISSSGRYIYYADSVKGRFTISRDNAKNSLYLQMNSLRAEDTAVYYCARDPRMVGNPHEFDIWGQGTMVTVSS
B6: TPP-1052: PDA2-6GS-HSA3-6GS-CD137D-His (bispecific antibody)
chain: EVQLVESGGGVVRPGGSLRLSCAASGFTFDDYAMSWVRQAPGKGLEWVSGITWNAGSTGYADSVKGRFTISRDNAKNSLYLQMNSLRAEDTALYYCVRDKYSYAWSYDDFDIWGQGTMVTVSSGGGGSGGGGSGGGGSGGGGSGGGGSGGGGSEVQLLESGGGLVKPGGSLRLSCAASGFTVSSYTMNWVRQAPGKGLEWVSSISSSGRYIYYADSVKGRFTISRDNAKNSLYLQMNSLRAEDTAVYYCARDPRMVGNPHEFDIWGQGTMVTVSSGGGGSGGGGSGGGGSGGGGSGGGGSGGGGSEVQLVESGGGVVQPGGSLRLSCAASGFTFSNYGMHWVRQAPGKGLEWVAVISNDGNTKTYADSVKGRFTISRDNSKNTLYLQMNSLRAEDTAVYYCAQDETTTVTASYYFDYWGQGTLVTVSSAAAHHHHHH
B7: TPP-1023: CD137A-6GS-HSA3-6GS-PDA-His (bispecific antibody)
chain: EVQLVESGGGLVQPGGSLRLSCAASGFTLSNYWMNWVRQAPGKGLEWVANINQDGSERYYVDSVKGRFTISRDNAKNSLYLQMNSLRAEDTAVYYCARGGEGYGVDHYGLDVSGQGTTVTVSSGGGGSGGGGSGGGGSGGGGSGGGGSGGGGSEVQLLESGGGLVKPGGSLRLSCAASGFTVSSYTMNWVRQAPGKGLEWVSSISSSGRYIYYADSVKGRFTISRDNAKNSLYLQMNSLRAEDTAVYYCARDPRMVGNPHEFDIWGQGTMVTVSSGGGGSGGGGSGGGGSGGGGSGGGGSGGGGSEVQLVESGGGLVQPGRSLRLSCAASGFTFDDYALHWVRQAPGKDLEWVSGISWNGGSYGYADSVKGRFTISRDNAKNSLYLQMNSLRAEDTALYYCVREKGPGLTGSTADYYGLDAWGQGTMVTVSSAAAHHHHHH
B8: TPP-943: PDA-6GS-172E1-13-6GS-HSA2-His (bispecific antibody)
chain: EVQLVESGGGLVQPGRSLRLSCAASGFTFDDYALHWVRQAPGKDLEWVSGISWNGGSYGYADSVKGRFTISRDNAKNSLYLQMNSLRAEDTALYYCVREKGPGLTGSTADYYGLDAWGQGTMVTVSSGGGGSGGGGSGGGGSGGGGSGGGGSGGGGSEVQLVESGGGVVQPGGSLRLSCAASGFTFSNYGMHWVRQAPGKGLEWVAVISNDGNTKTYADSVKGRFTISRDNSKNTLYLQMNSLRAEDTAVYYCAQDETTTVTASYYFDYWGQGTLVTVSSGGGGSGGGGSGGGGSGGGGSGGGGSGGGGSEVQLLESGGGLVKPGGSLRLSCAASGFTVSSYTMNWVRQAPGKGLEWVSSISSSGRYIYYADSVKGRFTISRDNAKNSLYLQMNSLRAEDTAVYYCARDPRMVGNPHEFDIWGQGTMVTVSSAAAHHHHHH
B9: TPP-1025: CD137A-6GS-HSA3-2-6GS-PDA2-His (bispecific antibody)
chain: EVQLVESGGGLVQPGGSLRLSCAASGFTLSNYWMNWVRQAPGKGLEWVANINQDGSERYYVDSVKGRFTISRDNAKNSLYLQMNSLRAEDTAVYYCARGGEGYGVDHYGLDVSGQGTTVTVSSGGGGSGGGGSGGGGSGGGGSGGGGSGGGGSEVQLLESGGGLVKPGGSLRLSCAASGFTVSSYTMNWVRQAPGKGLEWVSSISSSGRYIYYADSVKGRFTISRDNAKNSLYLQMNSLRAEDTAVYYCARDPRMVGNPHEFDIWGQGTMVTVSSGGGGSGGGGSGGGGSGGGGSGGGGSGGGGSEVQLVESGGGVVRPGGSLRLSCAASGFTFDDYAMSWVRQAPGKGLEWVSGITWNAGSTGYADSVKGRFTISRDNAKNSLYLQMNSLRAEDTALYYCVRDKYSYAWSYDDFDIWGQGTMVTVSSAAAHHHHHH
B10: TPP-1016: CD137A-6GS-PDA2-6GS-HSA1-His (bispecific antibody)
chain: EVQLVESGGGLVQPGGSLRLSCAASGFTLSNYWMNWVRQAPGKGLEWVANINQDGSERYYVDSVKGRFTISRDNAKNSLYLQMNSLRAEDTAVYYCARGGEGYGVDHYGLDVSGQGTTVTVSSGGGGSGGGGSGGGGSGGGGSGGGGSGGGGSEVQLVESGGGVVRPGGSLRLSCAASGFTFDDYAMSWVRQAPGKGLEWVSGITWNAGSTGYADSVKGRFTISRDNAKNSLYLQMNSLRAEDTALYYCVRDKYSYAWSYDDFDIWGQGTMVTVSSGGGGSGGGGSGGGGSGGGGSGGGGSGGGGSEVQLVESGGGLVQPGRSLRLSCAASGFTFHHYAMHWVRQAPGKGLEWVSGISWNGNKITYADSVKGRFTISRDNAKNSLYLQMNSLRAEDTALYYCVRDSSLFIVGAPTFEHWGRGTLVTVSSAAAHHHHHH
B11: TPP-1017: CD137A-6GS-PD138G7(G109D)-6GS-HSA2-His (bispecific antibody)
chain: EVQLVESGGGLVQPGGSLRLSCAASGFTLSNYWMNWVRQAPGKGLEWVANINQDGSERYYVDSVKGRFTISRDNAKNSLYLQMNSLRAEDTAVYYCARGGEGYGVDHYGLDVSGQGTTVTVSSGGGGSGGGGSGGGGSGGGGSGGGGSGGGGSEVQLVESGGGVVRPGGSLRLSCAASGFTFDDYAMSWVRQAPGKGLEWVSGITWNGGSTGYADSVKDRFTISRDNAKNSLYLQMNSLRAEDTALYYCVRDKYSYAWSYDDFDIWGQGTMVTVSSGGGGSGGGGSGGGGSGGGGSGGGGSGGGGSEVQLVESGGGLVKPGGSLRLSCAASGFTFSNYNMNWVRQAPGKGLEWVSSISSAGTHIYYADSVKGRFTISRDNAKNSLYLQMNSLRAEDTAVYYCARDPHSTGWYKDFDYWGQGTLVTVSSAAAHHHHHH
B12: TPP-1014: CD137A-6GS-PDA-6GS-HSA-His (bispecific antibody)
chain: EVQLVESGGGLVQPGGSLRLSCAASGFTLSNYWMNWVRQAPGKGLEWVANINQDGSERYYVDSVKGRFTISRDNAKNSLYLQMNSLRAEDTAVYYCARGGEGYGVDHYGLDVSGQGTTVTVSSGGGGSGGGGSGGGGSGGGGSGGGGSGGGGSEVQLVESGGGLVQPGRSLRLSCAASGFTFDDYALHWVRQAPGKDLEWVSGISWNGGSYGYADSVKGRFTISRDNAKNSLYLQMNSLRAEDTALYYCVREKGPGLTGSTADYYGLDAWGQGTMVTVSSGGGGSGGGGSGGGGSGGGGSGGGGSGGGGSEVQLVESGGGLVQPGRSLRLSCAASGFTFHHYAMHWVRQAPGKGLEWVSGISWNGNKITYADSVKGRFTISRDNAKNSLYLQMNSLRAEDTALYYCVRDSSLFIVGAPTFEHWGRGTLVTVSSAAAHHHHHH

biological target: human CD137 expressed on cells (Jurkat human CD137 NF-kB luciferase reporter cells; human CD8+ T cells) (human, UniProt Q07011 24-255); test: cell-based or functional assay

**Q.** Which “Jurkat-CD137/CHO-PD-1 Reporter Assay EC50” value does the source give for B1 here?
**A.** 0.507 nM

**Q.** Which “Jurkat-CD137/CHO-PD-1 Reporter Assay EC50” value does the source give for B2 here?
**A.** 0.273 nM

**Q.** With B3 as the binder, how does the “Jurkat-CD137/CHO-PD-1 Reporter Assay EC50” value read?
**A.** 0.0809 nM

**Q.** With B4 as the binder, how does the “Jurkat-CD137/CHO-PD-1 Reporter Assay EC50” value read?
**A.** 57.4 nM

**Q.** How did the “Jurkat-CD137/CHO-PD-1 Reporter Assay EC50” value turn out when B5 was run?
**A.** 0.0323 nM

**Q.** Which “Jurkat-CD137/CHO-PD-1 Reporter Assay EC50” value does the source give for B6 here?
**A.** 3.26 nM

**Q.** B7 was tested. Which “Jurkat-CD137/CHO-PD-1 Reporter Assay EC50” value did it give?
**A.** 0.437 nM

**Q.** With B8 as the binder, how does the “Jurkat-CD137/CHO-PD-1 Reporter Assay EC50” value read?
**A.** 25.7 nM

**Q.** With B9 as the binder, how does the “Jurkat-CD137/CHO-PD-1 Reporter Assay EC50” value read?
**A.** 0.509 nM

**Q.** Which “Jurkat-CD137/CHO-PD-1 Reporter Assay EC50” value does the source give for B10 here?
**A.** 0.698 nM

**Q.** For B11, which “Jurkat-CD137/CHO-PD-1 Reporter Assay EC50” value is on record?
**A.** 0.21 nM

**Q.** With B12 as the binder, how does the “Jurkat-CD137/CHO-PD-1 Reporter Assay EC50” value read?
**A.** 0.548 nM

— patent publication US20220220215A1 (CRESCENDO BIOLOGICS, published 2022)
